According to article PMC7335806, “Molecular mechanisms that regulate export of the planar cell-polarity protein Frizzled-6 out of the endoplasmic reticulum” (The Journal of Biological Chemistry, 2020):

What was measured:
Assay in all cases: pull-down; peptides (5 nmol) covalently coupled to thiopyridone-Sepharose 6B beads via the C-terminal cysteine; 2 μg purified His-tagged Sar1A preincubated with 500 μM GTPγS in HK buffer (100 mM KCl, 20 mM Hepes pH 7.2); 1 h at 4 °C; immunoblotting
Conditions in all cases: both partners purified
[1] = target: T1, Sar1A (Δ2-17, E62A, E63A, H79G) (human, UniProt Q9NR31 10-198, Δ2-17 | E62A | E63A | H79G)
T1 construct: Sar1A, human, Δ2-17, H79G with E62A and E63A; preincubated with GTPγS; also called Sar1A (Δ2-17, H79G, E62A, E63A)-His; source: recombinant, purified; not shown: His, C-terminal, kept

[2] = target: T2, Sar1A (Δ2-17, H79G, D198A) (human, UniProt Q9NR31 10-198, Δ2-17 | H79G | D198A)
T2 construct: Sar1A, human, Δ2-17, H79G with D198A; preincubated with GTPγS; also called Sar1A bearing the D198A mutation; source: recombinant, purified

[3] = target: T3, His-tagged human Sar1A^(Δ2-17, H79G) (human, UniProt Q9NR31 10-198, Δ2-17 | H79G)
T3 construct: Sar1A, human, H79G, depleted of its N-terminal amphipathic helix (Δ2-17); preincubated with GTPγS; also called Sar1A^(Δ2-17, H79G)-His; Sar1A (Δ2-17, H79G)-His; source: recombinant (cloned into pET-28a), purified; not shown: His, C-terminal, kept

Measured: binding result

T2 sequence (Q9NR31 18-198 H79G/D198A): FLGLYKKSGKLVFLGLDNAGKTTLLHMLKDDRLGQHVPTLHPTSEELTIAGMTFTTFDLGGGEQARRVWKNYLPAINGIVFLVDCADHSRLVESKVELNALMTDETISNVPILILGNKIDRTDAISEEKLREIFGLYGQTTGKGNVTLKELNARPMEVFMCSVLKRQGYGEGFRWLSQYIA
T3 sequence (Q9NR31 18-198 H79G): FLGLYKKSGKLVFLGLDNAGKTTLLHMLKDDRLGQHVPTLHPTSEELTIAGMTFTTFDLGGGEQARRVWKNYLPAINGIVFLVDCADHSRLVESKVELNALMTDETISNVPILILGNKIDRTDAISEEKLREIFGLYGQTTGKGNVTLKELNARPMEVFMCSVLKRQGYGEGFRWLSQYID
T1 sequence (Q9NR31 18-198 E62A/E63A/H79G): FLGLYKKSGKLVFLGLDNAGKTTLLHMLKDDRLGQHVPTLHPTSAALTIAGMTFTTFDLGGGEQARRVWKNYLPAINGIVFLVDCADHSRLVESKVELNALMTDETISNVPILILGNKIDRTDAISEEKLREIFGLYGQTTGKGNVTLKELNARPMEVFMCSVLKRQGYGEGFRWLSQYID

B1: RRFR peptides (first intracellular loop of Fzd6) (peptide)
peptide: VRRFRYPERPC
notes: first intracellular loop of Fzd6 with the polybasic motif RRFR; added C-terminal cysteine residue, used to couple the peptide to thiopyridone-Sepharose 6B beads; Covalently linked to thiopyridone-Sepharose 6B through the added C-terminal cysteine; source: synthetic peptide, bought: GenScript
binds: [1] | [2] | [3]
